± gives the half width of the 95% confidence interval.
assay: folding stability dG unfold (combined trypsin and chymotrypsin); higher = more stable
In short: (§1)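 Sequencing followed digestion of designed mini-proteins with trypsin and chymotrypsin, each at 11 concentrations in threefold dilutions together with a no-protease condition. The mini-proteins were under 80 residues, had no cysteine, sat in a PA-tagged cDNA display construct, and were kept only if AlphaFold2 dimer inter-PAE was above 15. From the counts, Bayesian fitting gave K50, and unfolding free energy was derived against a sequence-predicted unfolded-state K50 and a shared folded-state K50, per protease or combined.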

Row | Sequence | folding stability dG unfold [kcal/mol]
1 | SAGGSAGGSAGGSPNIYYTSGPFALVVTLPNGTKIVIPGSNIENLKNYNLISVEVVSTDSAGGSAGGSAGGS [r4_348_TrMRF] | 1.4 ± 0.15
2 | SAGGSAGGSANGWVFMIHFNIEQEPVPAEELGMPPGDPGYEDMYVIKIKSISFFWVPAGDFSAGGSAGGSAG [r3_488_TrROS] | 4.38 ± 0.085
3 | SAGGSAGGSAGEEVILRIKVKLKNGEERTIEINMTLDELLAELPENVTEIKIEAIPKEDLSAGGSAGGSAGG [r11_596_TrROS_Hall] | 1.46 ± 0.079
4 | SAGGPVNKKELVTVPVYYDPETGKFVVKATYPTRPITVPTDETDPVEALARFGTLLEKVTGKPIDTFVGSAG [r5_251_TrMRF] | 0.288 ± 0.04
5 | SGGMEKTENGNVRPVPLPTTVVKETPPEVSPEEAKERVEKELKEKGYKNVKVTTSYDPSTNLVTITVTVESA [r9_1124_JUSTAS] | 0.564 ± 0.09
6 | SAGGSAGGSAGGMKTIEITNADGSKATAELLPDGWVKIYFEETGEEKTLPAKDLTITPPSAGGSAGGSAGGS [r10_289_TrROS_Hall] | 0.466 ± 0.05
7 | SAGGKKITVTVTRERTEDGTLRVTVTLRDEETGRTLTLTLTVPRENEEEVEEAAKRLAEELAADPELESAGG [r13_968_TrROS_Hall] | 4.42 ± 0.17
8 | SVEEFRELLPDAVIEAEPLSPDRLLIRLYVPEDPEKLNPLAERVRELAEEIERETGLPVLIEIIPVPPESSA [r9_1099_TrMRF] | 1.41 ± 0.028
9 | SAGGTIMIPFDTPEQAKDIREAAKDGEPIEIRPPDGKPIKFKIKDVEVDPNSGWLVIKIPNGRTIPISAGGS [r16_254_TrROS] | 0.0332 ± 0.097
10 | SAGGSAGGSATPPDSSVSVKVEITVGGEKKLVTATLTTLPNGTTSLTLNFDIPPDKYELSLVSAGGSAGGSA [r18_428_JUSTAS] | 2.51 ± 0.15
11 | SMKKGEKIKIEKKKDGTLKITLPDGKEITVPLKDIKIEIKDGKIKITVFKDGKKIAEFELKIKKKKKKKKSA [r9_901_TrROS_Hall] | 2.31 ± 0.42

assay: folding stability dG unfold from chymotrypsin proteolysis; higher = more stable
In short: as §1

Row | Sequence | folding stability dG unfold [kcal/mol]
12 | SAMLVVELEVDLPELKYMTPEEAEEIAEALAVEAAKELFPESDVKVKEVVVEPEPETGKLKVTVVLENESAG [r14_310_TrMRF] | 2.51 ± 0.048
13 | SAGGSAGGSAGNWIIRIRWPGKSIMFVLPEGMNVDEIATNIQDEFNYPIDIEVIPPGQPISAGGSAGGSAGG [r11_805_TrROS] | 2.65 ± 0.062
14 | SVSSKISKVVSETVEDDKRTVTIEVNVPSPVVEIYDSSGKVIKTVPLGKKTTITVTTDPKGTSVSVKVLNSA [r9_917_JUSTAS] | 0.967 ± 0.044
15 | SAGGSAGGSAGPEKMRIEDIEHERNPEDGRHTVKIKIPNGPDITFQFTDPEDLDDFKLEVSAGGSAGGSAGG [r11_711_TrROS] | 0.334 ± 0.075
16 | SNFPPGQQIKFTFRLPDNGMKIKIEVHVHPDGYVQVRMERENPDNGKRVKITFYVPGPTLDEILDFIEQFSA [r9_618_TrROS] | 3.852 ± 0.038
17 | SAGGSAGGSSNGITLKKPGGIEIKLPKPPSVKPVTVTTTFVFTTPDGKLVFVPKTTTLPPSLLSAGGSAGGS [r12_1027_JUSTAS] | 2.25 ± 0.2
18 | SAMKEMTAEELAKKLEEELRKLFPDVEIKVEIVEVKEDYVVIKVEITVRLKKPDGKEVEFKLELVLKVDSAG [r14_187_TrROS_Hall] | 3.55 ± 0.15
19 | SAGGSAGGLYIVRIEIYHPENGKEWTIMIPVPSEEEAKEEAEELAKTFAKKNGYKIEVEVFPLPSAGGSAGG [r6_787_TrROS] | 2.5 ± 0.067
20 | SAGGSAKIKITIEYDEETGEVRIKIEVDGKEYEITLSREELANMTIEELAKKLGVEIEEVEIYPVPSAGGSA [r15_801_TrROS_Hall] | 2.92 ± 0.28
21 | SAGGSKMEPGPVKIKVTDGGEEHTFDFQVSVMPDPDGRPMIMFSFPDGNPLSIPLDDAEKITDIEVSAGGSA [r2_297_TrROS] | -0.141 ± 0.29
22 | SAGGSAGGSAGGGRTYTFTLPDGTVLTVTADDMTEEEIRAKLEAEGGEIVEITVEPGLSSAGGSAGGSAGGS [r10_572_JUSTAS] | 2.991 ± 0.018
23 | SAGGSAGGSAGPYKVKVTLKNGEVLEFTIPEEFKDLKEVKIDLPEELKENIVKVEIEPLESAGGSAGGSAGG [r17_528_TrMRF] | 3.199 ± 0.02
24 | SAGGSAGGMIRFDTPEEVEAALKALRAKLPPGATLVIEIEVDGKLVRVEFKDGKITKVEVRELPSAGGSAGG [r6_288_TrROS_Hall] | 3.67 ± 0.12
25 | SAGGPFRIEDISIQRDPDNGKLTIIIPFPAPPGQEIKIKVRDPGNGKEKKFDMKVEPLPNGYLTMTISAGGS [r8_195_TrROS] | 2.17 ± 0.11
26 | SAGGSAGGSKPKRRRVQIELPLPPGKPITPDHIREFMRPFGAPKVEITNIHPTNGRWIITFELSAGGSAGGS [r20_79_TrROS] | 2.6 ± 0.11
27 | SAGGSAGKTKIEIRPLPDGSYLVLVTSPDGSKSEFIADGPDIPLPELLKKLNLPPDIEVVNAELPESAGGSA [r15_167_TrMRF] | 3.05 ± 0.056
28 | SAGGMSVTFEKEDKTYVITFEPSPEGGYLVTLEVLDPKTGEAKPVATAEFTEGSLEDAVVALLAAEESAGGS [r16_378_TrMRF] | 3.67 ± 0.08
29 | SGSFASVTEDSLPDGGGYIVATEVSTGASRVYPPGTVVAEPAPADSTLVETLYDPATGEPLSTTTRTVAASA [r9_209_JUSTAS] | 0.00381 ± 0.13
30 | SAGGSAGGSAGGDWITFTNPGGYKVTVEVDENGWMRVEVYPNGKPQEVPMPLEELKKNAPSAGGSAGGSAGG [r7_178_TrROS] | 0.868 ± 0.17
31 | SAGGSAGGSMKIKPGQVVKIKVEKDGKIYEFEAKIDPKTGKLVEIKSAEELKGLKIKEIEIVPSAGGSAGGS [r12_6_TrROS_Hall] | 2.274 ± 0.016
32 | SAGGPGEEYKHPNGMAMRRDPENGKVEMRKVPPIPIEIKIEIDPALGWIRLSITIPNGKKIEFTFPFSAGGS [r16_453_TrROS] | 4.11 ± 0.32
